{
  "source": "paper PMC5352116",
  "about": "“Quinacrine induces apoptosis in cancer cells by forming a functional bridge between TRAIL-DR5 complex and modulating the mitochondrial intrinsic cascade” (Oncotarget, 2016)",
  "target": "T1, Death Receptor 5 (DR5) (human (endogenous in MCF-10A-Tr), UniProt O14763 56-440)",
  "T1 construct": "Death receptor 5 (DR5, TRAIL-R2/Killer), endogenous in MCF-10A-Tr cells (derived from the human breast epithelial line MCF-10A); precipitated with an anti-DR5 antibody; also called TRAIL-R2; Killer; source: endogenous, MCF-10A-Tr cells (on cells; RIPA lysate)",
  "assay": "co-IP; DISC analysis: MCF-10A-Tr cells untreated or treated with QC, TRAIL or TRAIL (10 ng/mL, 3 h) then QC (2.5 uM, 48 h); RIPA lysate, pre-cleared with sepharose-4B beads, immunoprecipitated with anti-DR5 antibody at 4°C overnight; western blot",
  "details": "partners not purified",
  "data": [
    {"binder": "Fas-Associated protein with Death Domain (FADD) (natural protein, human (endogenous in MCF-10A-Tr), UniProt Q13158 1-208, looked up, FADD, adaptor protein of the DISC, endogenous in MCF-10A-Tr cells; source: endogenous, MCF-10A-Tr lysate) MDPFLVLLHSVSSSLSSSELTELKFLCLGRVGKRKLERVQSGLDLFSMLLEQNDLEPGHTELLRELLASLRRHDLLRRVDDFEAGAAAGAAPGEEDLCAAFNVICDNVGKDWRRLARQLKVSDTKIDSIEDRYPRNLTERVRESLRIWKNTEKENATVAHLVGALRSCQMNLVADLVQEVQQARDLQNRSGAMSPMSWNSDASTSEAS", "values": [
      {"measurement": "fold level in the DISC (anti-DR5 immunoprecipitate), TRAIL+QC treated against untreated cells", "value": 8, "unit": "fold"}
    ]}
  ]
}
